# How the values were obtained:
# [1] = tested on: TCF/LEF transcriptional activity; assay: TOP-FLASH luciferase reporter assay in HEK293 cells cotransfected with LRP6 and Mesd constructs; format: cell-based; settings: luciferase 48 hours after transfection
# Method: HEK293 cells were plated into six-well plates. For each well, […] of the TOP-[…] luciferase construct (Upstate Biotechnology) was cotransfected with 0.8 μg Mesd-expressing vector, 0.8 μg Mesd mutant-expressing vector, or empty vector. A β-galactosidase-expressing vector (Promega, Madison, Wis.) was included as an internal control for transfection efficiency. After 48 hours, cells were lysed and both luciferase and β-galactosidase activities were determined with enzyme assay kits (Promega). The luciferase activity was determined with a luminometer using the Dual Luciferase Assay system (Promega). Luciferase activity was normalized to the activity of the P-galactosidase.
# Activation of canonical Wnt signaling leads to the stabilization of P-catenin and regulation of gene transcription through transcription regulators including lymphoid-enhancing factor (LEF)-1 and T-cell factors (TCF). The TOP-FLASH luciferase reporter contains TCF-binding sites and can be directly activated by the P-catenin/TCF complex (Korinek et al., 1997). LRP6 is cell surface receptor, and only the mature receptor can reach the cell surface and modulate Wnt signaling (Cong et al., 2004). Next examined was the effect of Mesd_C on Wnt signaling using the TOP-FLASH luciferase reporter assay in HEK293 cells. […] The luciferase activity was measured 48 hours after transfection. […]
# LRP5 = LRP5 (Homo sapiens, UniProt O75197); assay: ^125I-Mesd binding to HEK293 cells transiently transfected with LRP5; settings: ^125I-Mesd 5 nM, 4 hours at 4° C., HEK293 cells transfected with Myc-tagged LRP5
# Chain of LRP5 (O75197 32-1615): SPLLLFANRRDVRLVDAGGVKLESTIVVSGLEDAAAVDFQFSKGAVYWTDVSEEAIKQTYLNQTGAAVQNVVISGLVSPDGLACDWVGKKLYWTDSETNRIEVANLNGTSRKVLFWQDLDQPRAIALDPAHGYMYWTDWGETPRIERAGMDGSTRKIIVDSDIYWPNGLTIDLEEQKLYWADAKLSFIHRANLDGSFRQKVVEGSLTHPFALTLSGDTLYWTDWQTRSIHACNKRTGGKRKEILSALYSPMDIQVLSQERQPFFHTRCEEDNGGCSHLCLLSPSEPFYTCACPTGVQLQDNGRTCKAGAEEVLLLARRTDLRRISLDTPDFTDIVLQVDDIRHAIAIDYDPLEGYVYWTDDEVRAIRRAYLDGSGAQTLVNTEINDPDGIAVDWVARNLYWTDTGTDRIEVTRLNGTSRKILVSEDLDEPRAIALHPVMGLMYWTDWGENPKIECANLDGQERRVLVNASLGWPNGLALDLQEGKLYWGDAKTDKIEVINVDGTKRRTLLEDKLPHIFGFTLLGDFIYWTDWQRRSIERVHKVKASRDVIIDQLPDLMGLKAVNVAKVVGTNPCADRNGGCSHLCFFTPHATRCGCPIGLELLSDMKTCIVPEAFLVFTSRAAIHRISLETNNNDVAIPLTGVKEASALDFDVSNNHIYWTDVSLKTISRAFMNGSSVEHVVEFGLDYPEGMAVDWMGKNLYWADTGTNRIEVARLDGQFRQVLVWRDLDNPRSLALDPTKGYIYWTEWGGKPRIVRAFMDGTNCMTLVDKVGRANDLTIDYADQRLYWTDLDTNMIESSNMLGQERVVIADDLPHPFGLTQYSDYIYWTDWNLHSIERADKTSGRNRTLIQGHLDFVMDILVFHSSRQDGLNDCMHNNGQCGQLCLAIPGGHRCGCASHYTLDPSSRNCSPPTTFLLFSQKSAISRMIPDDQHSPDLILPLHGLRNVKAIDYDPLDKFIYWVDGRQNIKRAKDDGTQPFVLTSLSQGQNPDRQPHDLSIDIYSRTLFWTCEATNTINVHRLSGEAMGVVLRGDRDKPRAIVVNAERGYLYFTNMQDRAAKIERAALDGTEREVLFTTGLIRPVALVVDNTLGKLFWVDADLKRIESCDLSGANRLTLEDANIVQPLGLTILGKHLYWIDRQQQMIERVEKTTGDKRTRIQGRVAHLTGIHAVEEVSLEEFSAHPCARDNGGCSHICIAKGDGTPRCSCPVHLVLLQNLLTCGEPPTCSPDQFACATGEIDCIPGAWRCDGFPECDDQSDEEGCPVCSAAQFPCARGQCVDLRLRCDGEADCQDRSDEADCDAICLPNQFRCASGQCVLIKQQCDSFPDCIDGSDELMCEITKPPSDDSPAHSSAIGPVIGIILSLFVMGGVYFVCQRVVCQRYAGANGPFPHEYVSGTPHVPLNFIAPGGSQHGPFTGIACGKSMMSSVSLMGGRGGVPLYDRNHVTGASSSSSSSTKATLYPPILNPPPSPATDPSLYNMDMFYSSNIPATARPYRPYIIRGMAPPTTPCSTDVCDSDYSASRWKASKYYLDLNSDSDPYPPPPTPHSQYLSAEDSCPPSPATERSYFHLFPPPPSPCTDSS
# Method: Cells (2×10^5) were seeded into 12-well dishes 1 day prior to assay. Ligand-binding buffer (minimal Eagle's medium containing 0.6% BSA with a different concentration of radioligand, 0.6 ml/well) was added to cell monolayers, in the absence or the presence of 500 nM unlabeled RAP or 500 nM unlabeled Mesd, followed with incubation for 0-4 hours at 4° C. Thereafter, overlying buffer containing unbound ligand was removed, and cell monolayers were washed and lysed in low-SDS lysis buffer (62.5 mM Tris-HCl pH 6.8, 0.2% SDS, 10% v/glycerol) and counted.
# To determine whether Mesd binds to other members of the LDLR family, ^125I-Mesd binding analysis was performed with four groups of cells expressing different members of the LDLR family (FIG. 2). In the first experiment, HEK293 cells were transiently transfected with cDNAs for the LDLR, LRP5, LRP6 or empty pcDNA3 vector. […]
molecule,measurement,setting,value
"Mesd: recombinant wild-type mouse Mesd, polyhistidine tail at the N-terminus, lacks the signal peptide, expressed in E. coli (protein, left off: small tags and cut ends, recombinant wild-type mouse Mesd, polyhistidine tail at the N-terminus, lacks the signal peptide, expressed in E. coli) ADTPGEATPPPRKKKDIRDYNDADMARLLEQWEKDDDIEEGDLPEHKRPSAPIDFSKLDPGKPESILKMTKKGKTLMMFVTVSGNPTEKETEEITSLWQGSLFNANYDVQRFIVGSDRAIFMLRDGSYAWEIKDFLVSQDRCAEVTLEGQMYPGKGGGSKEKNKTKPEKAKKKEGDRKPRASKEDNRAGSRREDL",TCF/LEF transcriptional activity (TOP-FLASH) on coexpression,[1],significantly enhanced
same,Specific ^125I-Mesd binding to LRP5,LRP5,"specifically binds to Mesd, albeit at lower levels compared to LRP6"

# Source: patent US20080227698A1, “OLIGOPEPTIDES FOR TREATMENT OF OSTEOPOROSIS AND OTHER BONE DISEASES AND METHODS THEREOF” (Washington University, priority 2005, published 2008)
